Measurements taken from paper PMC6252157 (Molecular neurobiology, 2018).

Biological target: T1, adenosine A1 receptor fused to Renilla luciferase (A1R-Rluc) (UniProt P30542 1-326)
T1 sequence (looked up): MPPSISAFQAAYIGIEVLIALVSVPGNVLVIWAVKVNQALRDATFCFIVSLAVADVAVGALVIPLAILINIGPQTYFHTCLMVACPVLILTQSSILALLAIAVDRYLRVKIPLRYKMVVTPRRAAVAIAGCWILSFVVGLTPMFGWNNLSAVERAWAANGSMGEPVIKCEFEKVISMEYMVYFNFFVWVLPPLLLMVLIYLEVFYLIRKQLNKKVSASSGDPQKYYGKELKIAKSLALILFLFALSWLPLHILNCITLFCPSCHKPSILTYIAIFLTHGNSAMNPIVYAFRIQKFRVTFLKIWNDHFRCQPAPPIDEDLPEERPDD
Experiment: FRET or BRET

BRET50: 2 ± 1 YFP/Rluc ratio
B1: dopamine D1 receptor fused to YFP (D1R-YFP) (receptor, UniProt P21728 1-446, looked up)
chain: MRTLNTSAMDGTGLVVERDFSVRILTACFLSLLILSTLLGNTLVCAAVIRFRHLRSKVTNFFVISLAVSDLLVAVLVMPWKAVAEIAGFWPFGSFCNIWVAFDIMCSTASILNLCVISVDRYWAISSPFRYERKMTPKAAFILISVAWTLSVLISFIPVQLSWHKAKPTSPSDGNATSLAETIDNCDSSLSRTYAISSSVISFYIPVAIMIVTYTRIYRIAQKQIRRIAALERAAVHAKNCQTTTGNGKPVECSQPESSFKMSFKRETKVLKTLSVIMGVFVCCWLPFFILNCILPFCGSGETQPFCIDSNTFDVFVWFGWANSSLNPIIYAFNADFRKAFSTLLGCYRLCPATNNAIETVSINNNGAAMFSSHHEPRGSISKECNLVYLIPHAVGSSEDLKKEEAAGIARPLEKLSPALSVILDYDTDVSLEKIQPITQNGQHPT
